Where a chain is given by its changes, count along the chain named.

In experiment [1] the test system is thrombin. As to the kind of experiment: Inhibition of thrombin by rHCII, chromogenic substrate Chromozym TH, second-order rate constants. Format: biochemical, human. The note with it: for Increase in the rate constant for thrombin inhibition produced by dermatan sulfate: dermatan sulfate versus no GAG; for Increase in the rate constant for thrombin inhibition produced by heparin: heparin versus no GAG. On the procedure:
(§1) Inhibition of proteases by rHCII--Protease inhibition by rHCII was determined by incubating 90 μl of the partially purified rHCII (or the corresponding heparin-Sepharose fractions of a control lysate from cells transformed with pMON-5840) with 5 μl of the protease and 5 μl of either glycosaminoglycan or water in a disposable polystyrene cuvette at room temperature. Final concentrations of the proteases were as follows: thrombin, 15 nM; chymotrypsin, 21 nM; factor Xa, 16 nM; and kallikrein, 10 nM. After a specified period of time from 5 seconds (s) to 150 min, 300-500 μl of the appropriate chromogenic substrate was added, and the absorbance at 405 nm was recorded continuously for 100 s. The rate of change of absorbance was proportional to the concentration of active protease remaining in the incubation. The amounts added and concentrations of each substrate were as follows: Chromozym TH (thrombin), 500 μl, 0.1 mM; N-succinyl-Ala-Ala-Pro-Phe-p-nitroanilde (chymotrypsin), 300 μl, 0.5 mM; Spectrozyme FXa (factor Xa), 400 μl, 0.125 mM; and S-2302 (kallikrein), 300 μl, 0.4 mM.
Protease inhibition by rHCII in the absence of a glycosaminoglycan--The time courses of inhibition of thrombin, factor Xa, kallikrein, and chymotrypsin by native rHCII(Leu444 →Arg) in the absence of a glycosaminoglycan are indicated in FIG. 3. The incubations were performed under pseudo-first-order conditions, such that the initial concentration of rHCII was greater than the concentration of protease. The pseudo-first-order rate constants (k1) for protease inhibition were determined by fitting the data to the following equation: k1 t=1n([P]0 /[P]t), in which [P]0 =initial prolease activity and [P]t =protease activity at time=t. The second-order rate constants (k2) were then calculated by dividing k by the initial rHCII concentration. It was observed that rHCII(Leu444 →Arg) inhibits thrombin almost 100 times more rapidly than native rHCII in the absence of a glycosaminoglycan Furthermore, rHCII(Leu444 →Arg) inhibits factor Xa and kallikrein, while inhibition of these proteases by native rHCII is undetectable.
Inhibition of thrombin by rHCII in the presence dermatan sulfate or heparin--The time course of inhibition of thrombin was determined in the presence of various concentrations of dermatan sulfate or heparin.

Experiment [2] relates to chymotrypsin. As to the kind of experiment: Inhibition of chymotrypsin by rHCII, chromogenic substrate assay. Format: biochemical, human. As to the method:
as §1, with “The amounts added and concentrations of each substrate were as follows: Chromozym TH (thrombin), 500 μl, 0.1 mM; N-succinyl-Ala-Ala-Pro-Phe-p-nitroanilde (chymotrypsin), 300 μl, 0.5 mM; Spectrozyme FXa (factor Xa), 400 μl, 0.125 mM; and S-2302 (kallikrein), 300 μl, 0.4 mM.” left out
Protease inhibition by rHCII in the absence of a glycosaminoglycan--The time courses of inhibition of thrombin, factor Xa, kallikrein, and chymotrypsin by native rHCII(Leu444 →Arg) in the absence of a glycosaminoglycan are indicated in FIG. 3. […] The pseudo-first-order rate constants (k1) for protease inhibition were determined by fitting the data to the following equation: k1 t=1n([P]0 /[P]t), in which [P]0 =initial prolease activity and [P]t =protease activity at time=t. The second-order rate constants (k2) were then calculated by dividing k by the initial rHCII concentration. […]

The subject of experiment [3] is thrombin. The note with it: cited from earlier work.

B1: native rHCII: recombinant full-length heparin cofactor II expressed in E. coli; amino acid sequence identical to HCII purified from human plasma (protein, UniProt P05546 20-499, looked up)
Heparin cofactor 2: GSKGPLDQLEKGGETAQSADPQWEQLNNKNLSMPLLPADFHKENTVTNDWIPEGEEDDDYLDLEKIFSEDDDYIDIVDSLSVSPTDSDVSAGNILQLFHGKSRIQRLNILNAKFAFNLYRVLKDQVNTFDNIFIAPVGISTAMGMISLGLKGETHEQVHSILHFKDFVNASSKYEITTIHNLFRKLTHRLFRRNFGYTLRSVNDLYIQKQFPILLDFKTKVREYYFAEAQIADFSDPAFISKTNNHIMKLTKGLIKDALENIDPATQMMILNCIYFKGSWVNKFPVEMTHNHNFRLNEREVVKVSMMQTKGNFLAANDQELDCDILQLEYVGGISMLIVVPHKMSGMKTLEAQLTPRVVERWQKSMTNRTREVLLPKFKLEKNYNLVESLKLMGIRMLFDKNGNMAGISDQRIAIDLFKHQGTITVNEEGTQATTVTTVGFMPLSTQVRFTVDRPFLFLIYEHRTSCLLFMGRVANPSRS
modifications: recombinant, E. coli
B1: in experiment [1], the “Increase in the rate constant for thrombin inhibition produced by dermatan sulfate” value is listed as approximately 3500 fold and the “Increase in the rate constant for thrombin inhibition produced by heparin” value is “about 40 fold”. Moreover, the “Effect of dermatan sulfate on the rate of inhibition of chymotrypsin” value in experiment [2] is reported as “does not significantly increase”.

B2: HCII: heparin cofactor II, a 65,600 dalton plasma glycoprotein, serpin that inhibits thrombin (protein, UniProt P05546 20-499, looked up)
Heparin cofactor 2: B1 Heparin cofactor 2
On to B2, for which the “Increase of the rate of thrombin inhibition by heparin and dermatan sulfate” value in experiment [3] is recorded as ~ 1000 fold.

B3: rHCII(Leu444 →Arg): heparin cofactor II in which the leucine residue at position 444 is replaced by arginine; recombinant, expressed in E. coli (protein, UniProt P05546 20-499, looked up, variant L444R)
Heparin cofactor 2: B1 Heparin cofactor 2 with L444R
modifications: recombinant, E. coli-expressed
notes: heparin cofactor II in which the leucine residue at position 444 is replaced by arginine; recombinant, expressed in E. coli
Take B3: in experiment [1], the “Increase in the rate constant for thrombin inhibition produced by dermatan sulfate” value is recorded as “much smaller effect” and the “Increase in the rate constant for thrombin inhibition produced by heparin” value is recorded as “minimal effect”.

Values taken from patent US5118793A, “Modified heparin cofactor II” (Washington University, priority 1991, dated 1992).
